In PMC3688593, “Cytokine Receptor-Like Factor 1 (CRLF1) Protects against 6-Hydroxydopamine Toxicity Independent of the gp130/JAK Signaling Pathway” (PLoS ONE, 2013):

Molecular target: the molecule itself
Experiment: non-reducing versus reducing SDS-PAGE with immunoblot; proteins precipitated from conditioned media of stable SH-SY5Y lines; about 110 kDa band on non-reducing gels, 55 kDa CRLF1 band on reducing gels; blots for CRLF1 and CLCF1

B1: cytokine receptor-like factor 1 (CRLF1), full-length, untagged (natural protein, UniProt O75462 38-422, looked up)
chain: AHTAVISPQDPTLLIGSSLLATCSVHGDPPGATAEGLYWTLNGRRLPPELSRVLNASTLALALANLNGSRQRSGDNLVCHARDGSILAGSCLYVGLPPEKPVNISCWSKNMKDLTCRWTPGAHGETFLHTNYSLKYKLRWYGQDNTCEEYHTVGPHSCHIPKDLALFTPYEIWVEATNRLGSARSDVLTLDILDVVTTDPPPDVHVSRVGGLEDQLSVRWVSPPALKDFLFQAKYQIRYRVEDSVDWKVVDDVSNQTSCRLAGLKPGTVYFVQVRCNPFGIYGSKKAGIWSEWSHPTAASTPRSERPGPGGGACEPRGGEPSSGPVRRELKQFLGWLKKHAYCSNLSFRLYDQWRAWMQKSHKTRNQDEGILPSGRRGTARGPAR
notes: signal peptide in the construct; cytokine receptor-like factor 1 (CRLF1), untagged full-length open reading frame in pCDH-EF1-MCS-IRES-neo; detected in the conditioned medium as the secreted protein; The 110 kDa band is lost on reduction, so the dimer appears to be disulfide-linked; also called CRLF1-FL; FL
- stoichiometry N: 2
